Data: patent US20220135655A1

Experiments:
Assay in all cases: SPR
Conditions in all cases: scFv
[1] = biological target: H5VN04 (influenza A virus H5VN04 (H5N1))
[2] = biological target: H5 (influenza A virus H5VN04 (H5N1))
[3] = biological target: H5 (influenza A virus H5VN04 (H5N1)); remark: listed apart in the source
[4] = biological target: H5 (influenza A virus H5VN04 (H5N1)); remark: listed apart in the source

F10 wt
Kd [1]: 0.1 nM

CR6261 wt
Kd [1]: 0.34 nM

F10
Kd [2]: 1.2 nM | Kd [3]: 0.1 nM | Kd [4]: 270 nM
